Biological target: PPARα (UniProt P23204)
Assay: Flag-JMJD3 co-IP, PPARα immunoblot
Settings: reference: wild type, FGF21-treated; sites T1044

- binding against the reference: weaker
Substance: JMJD3 (KDM6B) (from UniProt Q5NCY0) T1044A, FGF21-treated

Reference: PMC7010817
